Usually Kd stands for the free concentration of one partner at which half of the binding sites on the other are occupied at equilibrium, for simple one-to-one binding. The term stoichiometry N denotes the number of molecules, sites or subunits per partner or assembly.

The results in this text go back to paper doi:10.1101/2023.03.15.532789.

Assay [1] deals with hDLG1 PDZ1 domain (human) (UniProt Q12959). Nature of the assay: NMR titration.
In assay [2] the target is hDLG1 PDZ2 domain (human) (UniProt Q12959). Nature of the assay: ITC. A general note: ITC needs no label: the signal is the heat of the interaction.
Chain of hDLG1 PDZ2 domain (human) (Q12959 whole entry, the tested form may be a part): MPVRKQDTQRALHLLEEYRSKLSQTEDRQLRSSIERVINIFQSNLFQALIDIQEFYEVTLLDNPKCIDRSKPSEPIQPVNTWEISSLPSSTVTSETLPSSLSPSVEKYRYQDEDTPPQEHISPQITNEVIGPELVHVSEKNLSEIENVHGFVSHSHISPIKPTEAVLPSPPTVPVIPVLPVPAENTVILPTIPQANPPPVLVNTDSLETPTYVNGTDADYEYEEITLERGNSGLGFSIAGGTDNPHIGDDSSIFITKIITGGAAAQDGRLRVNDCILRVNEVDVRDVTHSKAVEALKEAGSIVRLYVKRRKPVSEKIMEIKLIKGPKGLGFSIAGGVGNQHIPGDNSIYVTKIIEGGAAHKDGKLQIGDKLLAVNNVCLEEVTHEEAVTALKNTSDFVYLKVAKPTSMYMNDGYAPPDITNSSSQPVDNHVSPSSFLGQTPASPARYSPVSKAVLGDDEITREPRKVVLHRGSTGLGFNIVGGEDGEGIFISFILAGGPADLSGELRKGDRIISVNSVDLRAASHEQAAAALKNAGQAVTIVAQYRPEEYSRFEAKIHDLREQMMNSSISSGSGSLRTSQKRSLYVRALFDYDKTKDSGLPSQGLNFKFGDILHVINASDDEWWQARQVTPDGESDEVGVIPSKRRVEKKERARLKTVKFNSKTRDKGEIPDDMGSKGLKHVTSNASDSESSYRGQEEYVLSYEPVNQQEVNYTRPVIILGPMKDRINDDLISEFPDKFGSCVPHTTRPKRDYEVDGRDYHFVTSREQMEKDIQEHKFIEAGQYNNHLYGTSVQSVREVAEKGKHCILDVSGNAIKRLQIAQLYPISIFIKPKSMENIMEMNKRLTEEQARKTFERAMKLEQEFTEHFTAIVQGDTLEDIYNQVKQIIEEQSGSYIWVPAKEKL
Assay [3] concerns the target hDLG1 PDZ1 domain (human) (UniProt Q12959). Briefly: ITC.

Chain of hDLG1 PDZ1 domain (human) (Q12959 whole entry, the tested form may be a part): as above

Turning to “C-terminally amidated Tax-1 peptide (Tax-1mod)”, in assay [1], the dissociation constant Kd stood at 951000 nM.
In assay [2], Tax-1 10-mer peptide (H-…-OH) displayed a Kd of 900 nM, a dH of -10.4 kcal/mol and a stoichiometry N of 0.99. In assay [3], this substance had a dissociation constant Kd of 2700 nM, a dH of -8 kcal/mol and a stoichiometry N of 1.03.
